From article PMC12775136, “Mechanistic insights into recruitment and regulation of the RNA helicase UPF1 in replication-dependent histone mRNA decay” come the findings set out here.

One data set deals with SLBPfl (human, UniProt Q14493 1-270). The experiment in a line: fluorescence anisotropy; 0.5 mM EDTA; Fluorescence anisotropy: 20 mM HEPES pH 7.5, 100 mM NaCl, 0.5 mM EDTA, 100 ug/ml BSA; 30 min at room temperature, read at 25 C; one-site fit with Hill slope, n=3. Conditions: protein: recombinant, tags: 6xHis-TEV (N-terminal), label: 5' 6-FAM. A general note: Polarisation of emitted light reports the rotation of a fluorescent probe.

Data set [1] addresses T1, 3'hExofl (ERI1) (human, UniProt Q8IV48 1-349).
T1 sequence: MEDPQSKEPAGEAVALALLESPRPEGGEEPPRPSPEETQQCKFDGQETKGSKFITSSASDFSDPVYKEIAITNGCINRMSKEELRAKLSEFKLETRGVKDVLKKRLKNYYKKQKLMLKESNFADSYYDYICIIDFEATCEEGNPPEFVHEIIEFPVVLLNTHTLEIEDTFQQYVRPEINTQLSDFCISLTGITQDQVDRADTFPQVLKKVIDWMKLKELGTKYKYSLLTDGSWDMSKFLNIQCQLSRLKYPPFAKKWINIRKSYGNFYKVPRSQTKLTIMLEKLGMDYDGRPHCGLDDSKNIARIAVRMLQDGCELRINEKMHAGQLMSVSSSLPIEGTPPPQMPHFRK
The experiment in a line: fluorescence anisotropy; 0.5 mM EDTA, no Mg2+; Kd shown only in figure; Fluorescence anisotropy: 20 mM HEPES pH 7.5, 100 mM NaCl, 0.5 mM EDTA, 100 ug/ml BSA; 30 min at room temperature, read at 25 C; one-site fit with Hill slope, n=3. Conditions: protein: recombinant, tags: 6xHis, HRV-3C site (N-terminal), label: 5' 6-FAM, hairpin.

The target of data set [2] is T1, 3'hExofl (ERI1). The experiment in a line: fluorescence anisotropy; 0.5 mM EDTA, no Mg2+; affinity comparable to SL26 and SL24; Kd shown only in figure; Fluorescence anisotropy: 20 mM HEPES pH 7.5, 100 mM NaCl, 0.5 mM EDTA, 100 ug/ml BSA; 30 min at room temperature, read at 25 C; one-site fit with Hill slope, n=3. The conditions noted are these: protein: recombinant; tags: 6xHis, HRV-3C site (N-terminal); label: 5' 6-FAM; partial hairpin; 3' arm lacks last 2 stem nt.

The target of data set [3] is T2, UPF1-Hel;SLBP-N (human;human, UniProt Q92900-2;Q14493 295-914;1-198, |). Kind of data set: analytical SEC; stable UPF1-SLBP complex only with SL26; Fluorescence anisotropy: 20 mM HEPES pH 7.5, 100 mM NaCl, 0.5 mM EDTA, 100 ug/ml BSA; 30 min at room temperature, read at 25 C; one-site fit with Hill slope, n=3. Conditions: protein: recombinant;recombinant; tags: 6xHis;6xHis-TEV; copies: 1;1; hairpin, 6 bp stem, 4 nt loop.

The next data set has as its target T3, UPF1-CHh (human, UniProt Q92900-2 115-914).
T3 sequence: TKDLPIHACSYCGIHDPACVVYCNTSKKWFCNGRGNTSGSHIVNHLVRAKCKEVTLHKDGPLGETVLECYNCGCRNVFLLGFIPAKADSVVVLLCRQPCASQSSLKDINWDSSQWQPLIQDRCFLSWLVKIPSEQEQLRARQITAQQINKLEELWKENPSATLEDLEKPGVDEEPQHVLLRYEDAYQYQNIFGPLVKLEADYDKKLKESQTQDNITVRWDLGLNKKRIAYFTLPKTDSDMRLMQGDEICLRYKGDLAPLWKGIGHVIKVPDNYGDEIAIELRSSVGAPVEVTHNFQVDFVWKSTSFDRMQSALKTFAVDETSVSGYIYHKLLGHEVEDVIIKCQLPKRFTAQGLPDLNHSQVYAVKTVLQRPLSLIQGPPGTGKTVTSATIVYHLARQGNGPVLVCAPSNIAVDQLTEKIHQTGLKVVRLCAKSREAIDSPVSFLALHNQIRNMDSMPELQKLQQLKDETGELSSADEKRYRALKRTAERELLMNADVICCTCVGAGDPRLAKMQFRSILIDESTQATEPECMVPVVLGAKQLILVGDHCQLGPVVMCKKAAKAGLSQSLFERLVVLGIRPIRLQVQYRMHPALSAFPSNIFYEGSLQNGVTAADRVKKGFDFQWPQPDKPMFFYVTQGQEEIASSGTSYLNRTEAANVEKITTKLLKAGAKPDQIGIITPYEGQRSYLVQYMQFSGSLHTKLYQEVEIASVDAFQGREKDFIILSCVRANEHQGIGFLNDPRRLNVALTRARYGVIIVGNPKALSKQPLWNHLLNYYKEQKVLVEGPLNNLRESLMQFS
The experiment in a line: cryoEM structure (3.6 A); no ATP; Zn2+; Fluorescence anisotropy: 20 mM HEPES pH 7.5, 100 mM NaCl, 0.5 mM EDTA, 100 ug/ml BSA; 30 min at room temperature, read at 25 C; one-site fit with Hill slope, n=3. Conditions: protein: recombinant; tags: 6xHis; hairpin with 5' single-stranded U12 extension.

Data set [4] has as its target T2, UPF1-Hel;SLBP-N. Kind of data set: preparative SEC; ternary complex reconstituted for crosslinking MS; Fluorescence anisotropy: 20 mM HEPES pH 7.5, 100 mM NaCl, 0.5 mM EDTA, 100 ug/ml BSA; 30 min at room temperature, read at 25 C; one-site fit with Hill slope, n=3. Conditions: protein: recombinant;recombinant; tags: 6xHis;6xHis-TEV; copies: 1;1; hairpin with 5' single-stranded U12 extension.

CCAAAGGCUCUUUUCAGAGCCACCCA (structured_RNA) [6-FAM-SL26]: the Kd (commonly the free concentration of one partner at which half of the binding sites on the other are occupied at equilibrium, for simple one-to-one binding) in the data set with SLBPfl (hairpin, 6 bp stem, 4 nt loop) is approximately 6 nM. Besides, the binding result in the data set with 3'hExofl (ERI1) [1] (6 bp stem, 4 nt loop) is on record as “binds”.
Turning to CCAAAGGCUCUUUUCAGAG (structured_RNA) [6-FAM-SL19], the dissociation constant Kd in the data set with SLBPfl (partial hairpin, 3' arm lacks last 2 stem nt) is approximately 500 nM. Moreover, in the data set with 3'hExofl (ERI1) [2], the binding result is “binds”.
In the case of CCAAAGGCUCUUUUCAGAGCCACU (structured_RNA) [6-FAM-SL24], the Kd in the data set with SLBPfl (hairpin, intact 6 bp stem) is approximately 7 nM. In addition, the binding result in the data set with 3'hExofl (ERI1) [1] (intact 6 bp stem) was “binds”.
For CCAAAGGCUCUUUUCAGAGCCACCCA (structured_RNA) [SL26 RNA (SEC)], the binding result with UPF1-Hel;SLBP-N [3] is recorded as “binds”.
For the molecule UUUUUUUUUUUUCCAAAGGCUCUUUUCAGAGCCACCCA (structured_RNA) [U-SL (12U-26SL)], the binding result with UPF1-CHh and in the data set with UPF1-Hel;SLBP-N [4] was “binds” each time.
